Data as given in the supplement of paper PMC9233669.
Fewer inactive variants are shown than the library holds.

Legend:
biotinyl-Ile-oxazolone = test: self-aminoacylation, catalytic enhancement (BIO) (fold over background); higher = more active; k-Seq, kA / k0A0; sequences stand for … in GGGAAUGGAUCCACAUCUACGAAUUC…UUCACUGCAGACUUGACGAAGCUG
In short: (§1)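 Each biotinyl-aminoacyl-oxazolone, at 2–1250 μM, was incubated with mutagenized RNA pools (0.43 μM) carrying a 21-nt variable region. The 50 μL reactions contained HEPES/NaCl/KCl/MgCl2/CaCl2 buffer with 5% acetonitrile at pH 6.9–7.0 and ran for 90 minutes at room temperature. After streptavidin capture, RNA was measured by qPCR in triplicate and by Illumina sequencing, and catalytic enhancement was calculated as median kA over the uncatalyzed rate from a pseudo-first-order fit of per-sequence fraction reacted.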

biotinyl-Phe-oxazolone = test: self-aminoacylation, catalytic enhancement (BFO) (fold over background); higher = more active; k-Seq, kA / k0A0; sequences stand for … in GGGAAUGGAUCCACAUCUACGAAUUC…UUCACUGCAGACUUGACGAAGCUG
In short: as §1

biotinyl-Val-oxazolone = test: self-aminoacylation, catalytic enhancement (BVO) (fold over background); higher = more active; k-Seq, kA / k0A0; sequences stand for … in GGGAAUGGAUCCACAUCUACGAAUUC…UUCACUGCAGACUUGACGAAGCUG
In short: as §1

biotinyl-Met-oxazolone = test: self-aminoacylation, catalytic enhancement (BMO) (fold over background); higher = more active; k-Seq, kA / k0A0; sequences stand for … in GGGAAUGGAUCCACAUCUACGAAUUC…UUCACUGCAGACUUGACGAAGCUG
In short: as §1

biotinyl-Leu-oxazolone = test: self-aminoacylation, catalytic enhancement (BLO) (fold over background); higher = more active; k-Seq, kA / k0A0; sequences stand for … in GGGAAUGGAUCCACAUCUACGAAUUC…UUCACUGCAGACUUGACGAAGCUG
In short: as §1

biotinyl-Trp-oxazolone = test: self-aminoacylation, catalytic enhancement (BWO) (fold over background); higher = more active; k-Seq, kA / k0A0; sequences stand for … in GGGAAUGGAUCCACAUCUACGAAUUC…UUCACUGCAGACUUGACGAAGCUG
In short: as §1

| Sequence | self-aminoacylation (biotinyl-Ile-oxazolone) | self-aminoacylation (biotinyl-Phe-oxazolone) | self-aminoacylation (biotinyl-Val-oxazolone) | self-aminoacylation (biotinyl-Met-oxazolone) | self-aminoacylation (biotinyl-Leu-oxazolone) | self-aminoacylation (biotinyl-Trp-oxazolone) |
| --- | --- | --- | --- | --- | --- | --- |
| CGACUUCAAAGAAUCGGUCUG [Fam1A.1 aminoacylation ribozyme variant] | 1.31 | 9.34 | 1.3 | 1.32 | 1.66 | 7.38 |
| CUAAUUCAAACAAUCCGUCUG [Fam1A.1 aminoacylation ribozyme variant] | 0.682 | 0.937 | 0.764 | 0.635 | 0.578 | 0.609 |
| CUAAUUCAAACAAUCGCUCUG [Fam1A.1 aminoacylation ribozyme variant] | 0.628 | 0.713 | 0.653 | 0.668 | 0.527 | 0.67 |
| CUAAUUCAAACAAUCGGUCAG [Fam1A.1 aminoacylation ribozyme variant] | 0.602 | 1.46 | 0.546 | 0.583 | 0.566 | 0.765 |
| CUAAUUCAAACAAUCGGUCCG [Fam1A.1 aminoacylation ribozyme variant] | 0.553 | 0.604 | 0.539 | 0.575 | 0.732 | 0.513 |
| CUAAUUCAAACAAUCGGUCUA [Fam1A.1 aminoacylation ribozyme variant] | 0.612 | 1.65 | 0.593 | 0.549 | 0.497 | 0.635 |
| CUAAUUCAAACCAUCGGUCUG [Fam1A.1 aminoacylation ribozyme variant] | 0.967 | 0.795 | 0.848 | 0.817 | 0.949 | 0.589 |
| CUAAUUCAAACUAUCGGUCUG [Fam1A.1 aminoacylation ribozyme variant] | 0.978 | 1.1 | 0.936 | 1.09 | 0.938 | 0.685 |
| CUAAUUCAAAGAAUCGGUCUG [Fam1A.1 aminoacylation ribozyme variant] | 0.805 | 0.767 | 0.842 | 0.742 | 0.806 | 0.78 |
| CUAAUUCAUACAAUCGGUCUG [Fam1A.1 aminoacylation ribozyme variant] | 0.767 | 0.621 | 0.77 | 0.637 | 0.594 | 0.52 |
| CUAAUUCUAACAAUCGGUCUG [Fam1A.1 aminoacylation ribozyme variant] | 0.751 | 0.731 | 0.714 | 0.652 | 0.624 | 0.474 |
| CUAAUUGAAACAAUCGGUCUG [Fam1A.1 aminoacylation ribozyme variant] | 0.78 | 0.706 | 0.775 | 0.944 | 0.752 | 0.64 |
| CUACACUUCAAGCAAUCGGUA [Fam1B.1 aminoacylation ribozyme variant] | 0.739 | 1.37 | 0.65 | 0.709 | 0.755 | 0.846 |
| CUACACUUCAAGCAAUCGGUU [Fam1B.1 aminoacylation ribozyme variant] | 1.29 | 9.78 | 1.27 | 1.47 | 1.46 | 7.05 |
| CUACACUUCAGGCAAUCGGUC [Fam1B.1 aminoacylation ribozyme variant] | 1 | 1.49 | 1.01 | 1.01 | 0.97 | 0.839 |
| CUACACUUCCAGCAAUCGGUC [Fam1B.1 aminoacylation ribozyme variant] | 1.07 | 0.865 | 1.07 | 0.787 | 1.1 | 0.707 |
| CUACAUAAAACAAUCGGUCUG [Fam1A.1 aminoacylation ribozyme variant] | 0.808 | 0.674 | 0.799 | 0.934 | 0.738 | 0.539 |
| CUACAUCAAACAAUCCGUCUG [Fam1A.1 aminoacylation ribozyme variant] | 0.905 | 0.983 | 0.877 | 0.759 | 0.755 | 0.615 |
| CUACAUCAAACAAUCGGUCUA [Fam1A.1 aminoacylation ribozyme variant] | 0.669 | 1.61 | 0.922 | 0.802 | 0.58 | 0.755 |
| CUACAUCGAACAAUCGGUCUG [Fam1A.1 aminoacylation ribozyme variant] | 0.909 | 1.04 | 0.942 | 0.922 | 0.946 | 1.17 |
| CUACAUGAAACAAUCGGUCUG [Fam1A.1 aminoacylation ribozyme variant] | 0.828 | 0.716 | 0.803 | 0.868 | 0.721 | 0.772 |
| CUACCUCAAACAAACGGUCUG [Fam1A.1 aminoacylation ribozyme variant] | 0.919 | 1.33 | 1.03 | 0.85 | 1.08 | 0.615 |
| CUACCUCAAACAAUAGGUCUG [Fam1A.1 aminoacylation ribozyme variant] | 0.959 | 1.08 | 1 | 0.838 | 0.846 | 0.691 |
| CUACCUCAAACAAUCGGACUG [Fam1A.1 aminoacylation ribozyme variant] | 0.872 | 1.27 | 0.833 | 0.915 | 0.614 | 1.05 |
| CUACCUCAAACAAUCGGUCGG [Fam1A.1 aminoacylation ribozyme variant] | 1.28 | 1.56 | 1.25 | 1.5 | 1.55 | 1.78 |
| CUACCUCAAACAAUCGGUUUG [Fam1A.1 aminoacylation ribozyme variant] | 0.904 | 2.48 | 1.16 | 0.938 | 0.715 | 1.56 |

| Sequence | self-aminoacylation (biotinyl-Ile-oxazolone) | self-aminoacylation (biotinyl-Phe-oxazolone) | self-aminoacylation (biotinyl-Val-oxazolone) | self-aminoacylation (biotinyl-Met-oxazolone) | self-aminoacylation (biotinyl-Leu-oxazolone) | self-aminoacylation (biotinyl-Trp-oxazolone) |
| --- | --- | --- | --- | --- | --- | --- |
| CUACCUCAAACAAUCGUUCUG [Fam1A.1 aminoacylation ribozyme variant] | 0.711 | 0.62 | 0.672 | 0.525 | 0.588 | 0.863 |
| CUACCUCAACCAAUCGGUCUG [Fam1A.1 aminoacylation ribozyme variant] | 0.766 | 1.08 | 0.891 | 0.811 | 0.671 | 0.886 |
| CUACCUCUAACAAUCGGUCUG [Fam1A.1 aminoacylation ribozyme variant] | 0.8 | 0.97 | 0.739 | 0.915 | 0.919 | 0.565 |
| CUACGUCAAACAAUCGGUCAG [Fam1A.1 aminoacylation ribozyme variant] | 0.855 | 0.761 | 0.797 | 0.917 | 1.12 | 0.909 |
| CUACGUCAAACAAUCGUUCUG [Fam1A.1 aminoacylation ribozyme variant] | 0.789 | 0.508 | 0.813 | 0.854 | 0.822 | 0.856 |
| CUACGUCAAACAAUGGGUCUG [Fam1A.1 aminoacylation ribozyme variant] | 1.38 | 2.25 | 1.35 | 1.22 | 1.62 | 1.18 |
| CUACGUCAAACAGUCGGUCUG [Fam1A.1 aminoacylation ribozyme variant] | 1.14 | 3.92 | 1.52 | 1.25 | 1.75 | 1.14 |
| CUACGUCAUACAAUCGGUCUG [Fam1A.1 aminoacylation ribozyme variant] | 1.1 | 1.1 | 1.09 | 1.1 | 1.27 | 0.994 |
| CUACUACAAACAACCGGUCUG [Fam1A.1 aminoacylation ribozyme variant] | 1.19 | 1.12 | 1.14 | 0.601 | 0.845 | 0.954 |
| CUACUACAAACAAGCGGUCUG [Fam1A.1 aminoacylation ribozyme variant] | 1.11 | 0.606 | 1.2 | 1.1 | 1.25 | 0.883 |
| CUACUACAAACAAUAGGUCUG [Fam1A.1 aminoacylation ribozyme variant] | 0.826 | 0.827 | 0.94 | 0.635 | 0.718 | 0.456 |
| CUACUACAAACAAUCCGUCUG [Fam1A.1 aminoacylation ribozyme variant] | 0.717 | 0.545 | 0.832 | 0.728 | 0.68 | 0.855 |
| CUACUACAAACAAUCGGUCUC [Fam1A.1 aminoacylation ribozyme variant] | 0.647 | 1.05 | 0.59 | 0.53 | 0.418 | 0.673 |
| CUACUACAAACAAUGGGUCUG [Fam1A.1 aminoacylation ribozyme variant] | 1.07 | 0.955 | 1.14 | 1.37 | 1.15 | 1.69 |
| CUACUACAAACUAUCGGUCUG [Fam1A.1 aminoacylation ribozyme variant] | 0.869 | 0.752 | 0.839 | 0.949 | 0.713 | 0.717 |
| CUACUCCAAACAAACGGUCUG [Fam1A.1 aminoacylation ribozyme variant] | 0.816 | 1.09 | 0.981 | 0.531 | 0.71 | 0.918 |
| CUACUCCAAACAAUCGAUCUG [Fam1A.1 aminoacylation ribozyme variant] | 0.704 | 0.831 | 0.661 | 0.48 | 0.533 | 0.384 |
| CUACUCCAAACAAUCGGACUG [Fam1A.1 aminoacylation ribozyme variant] | 0.74 | 1.13 | 0.711 | 0.762 | 0.6 | 0.909 |
| CUACUCCAAACAAUUGGUCUG [Fam1A.1 aminoacylation ribozyme variant] | 1.13 | 0.67 | 1.03 | 1.09 | 1.02 | 0.642 |
| CUACUCCAAACACUCGGUCUG [Fam1A.1 aminoacylation ribozyme variant] | 1.12 | 1.15 | 0.962 | 0.93 | 1.03 | 1.52 |
| CUACUCCAAACCAUCGGUCUG [Fam1A.1 aminoacylation ribozyme variant] | 1.1 | 1.16 | 0.971 | 0.961 | 1.03 | 1.01 |
| CUACUCCAAAGAAUCGGUCUG [Fam1A.1 aminoacylation ribozyme variant] | 0.927 | 0.807 | 0.764 | 0.731 | 1.03 | 0.807 |
| CUACUCCAGACAAUCGGUCUG [Fam1A.1 aminoacylation ribozyme variant] | 1 | 0.42 | 1.14 | 1.29 | 1.07 | 0.923 |
| CUACUCCAUACAAUCGGUCUG [Fam1A.1 aminoacylation ribozyme variant] | 0.833 | 0.859 | 0.751 | 0.719 | 0.628 | 0.549 |
| CUACUCUAAACAAUCGGUCUG [Fam1A.1 aminoacylation ribozyme variant] | 0.808 | 0.77 | 0.873 | 0.776 | 0.727 | 0.651 |
